The data set deals with T1, SigL (sigma54) (Clostridium beijerinckii NCIMB 8052), ORF:07123114.
T1 sequence: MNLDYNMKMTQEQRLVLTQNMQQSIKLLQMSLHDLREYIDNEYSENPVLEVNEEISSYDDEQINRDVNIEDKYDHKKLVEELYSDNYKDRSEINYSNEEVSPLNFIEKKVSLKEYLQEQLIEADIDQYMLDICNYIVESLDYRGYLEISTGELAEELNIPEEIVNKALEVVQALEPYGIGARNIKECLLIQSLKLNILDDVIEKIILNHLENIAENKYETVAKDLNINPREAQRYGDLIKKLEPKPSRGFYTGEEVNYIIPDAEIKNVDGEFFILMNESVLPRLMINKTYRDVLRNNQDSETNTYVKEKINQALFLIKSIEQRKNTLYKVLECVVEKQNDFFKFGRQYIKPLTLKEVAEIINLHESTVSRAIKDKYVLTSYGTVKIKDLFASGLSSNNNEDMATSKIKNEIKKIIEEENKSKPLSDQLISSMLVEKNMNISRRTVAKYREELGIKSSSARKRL
The data set can be described thus: EMSA. To be noted: not stated; EMSA as described previously (ref 21), Cy5-labeled DNA, SigL up to 1500 nM.

In the case of “AGCCAGTGGCGATAAGGGGGAAAATCTTTAAAAGTGTACAAAAAAAACACATATTTTTCTGATTTATTTTATTTAAAAAGGTAAATAGAATTAATAGTAAACAGTTTAAAAAAATAATATTTAAAGAGTTTAGTAGATTTGGAAAAGGTTTTCGACTTTTGGAAAGAAACTTGGCATCCTAATTGCTCTATAAAAAGGTATGAGGAGGGATTATGACTTATCGCCACTGGCT (double strand) [cotX (cotX-gntT) promoter]”, the binding entry is “binds”.
Then “AGCCAGTGGCGATAAGGGTGTACAAAATATAGACATAAATAAAATTGATATATTTAGGAATTGATTACGAAAACCACAATATATAAGGTTTCATGGAAAAAATATGATTGGCATGCTTATTGCTAATAATAAAATTAACGGGAGTAGTAAGTGAACTAATATATATAACTTAATTTTTCCACAATCTTTAGTGCAATGCTATTTGCTATTTAAGGACTTATCGCCACTGGCT (double strand) [crt (crt-bcd-etfAB-moaC) promoter]”, with “binds”; and “AGCCAGTGGCGATAAGCCAGAAAAGAGTAAGATTCTCAAAATAGGACACTAAGTATGTGTCATAATGGCACATAGTGATTTTAAATGTCTTTTTAACAGGTTTCTTGTTTTTGGTATGGCTTTTGCTTATAAAATATAGTGAATATATTAACAGGTATATGTAAATTTTAATATTGCCATACTATTATAAAAAAGGAGAGATAATTCTTATCGCCACTGGCT (double strand) [butA promoter]”, with “binds”.

For the origin of these results see paper PMC6615313.
